Measured values as given in US20230272099A1 (Chugai, published 2023).
Changes are numbered by the printed parent chain.

T1: human FcgRIIa type R extracellular domain (human, UniProt P12318 34-217)
T1 construct: extracellular domain; also called hFcgRIIaR
T1 sequence (looked up): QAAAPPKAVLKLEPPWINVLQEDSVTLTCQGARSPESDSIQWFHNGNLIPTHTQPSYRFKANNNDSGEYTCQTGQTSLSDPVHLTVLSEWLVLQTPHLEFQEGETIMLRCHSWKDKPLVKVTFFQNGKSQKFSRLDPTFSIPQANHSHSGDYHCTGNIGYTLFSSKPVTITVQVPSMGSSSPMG

T2: human FcgRIIa type H extracellular domain (human, UniProt P12318 34-217)
T2 construct: extracellular domain; also called hFcgRIIaH
T2 sequence (looked up): T1 sequence (looked up) with R134H

T3: human FcgRIIb extracellular domain (human, UniProt P31994 43-217)
T3 construct: extracellular domain; also called hFcgRIIb
T3 sequence (looked up): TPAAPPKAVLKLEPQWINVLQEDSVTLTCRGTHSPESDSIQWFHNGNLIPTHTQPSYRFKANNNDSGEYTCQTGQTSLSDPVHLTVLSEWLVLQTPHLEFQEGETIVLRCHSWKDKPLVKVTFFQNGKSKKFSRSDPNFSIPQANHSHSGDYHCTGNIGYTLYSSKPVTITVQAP

B1: A375-MY201aPh/B167-Lamlib (antibody, human IgG1, lambda)
heavy: EVQLVESGGGLVKPGGSLRLSCAASGFTFSTFTMNWVRQAPGKGLEWVSSISSKSTYIEYADSFKVRFTISRDNAKNSLYLQMNSLRAEDTAVYYCARYGAKNFLNWVFDYWGQGTLVTVSSASTKGPSVFPLAPSSKSTSGGTAALGCLVKDYFPEPVTVSWNSGALTSGVHTFPAVLQSSGLYSLSSVVTVPSSSLGTQTYICNVNHKPSNTKVDKRVEPKSCDKTHTCPPCPAPELWNGPSVFLFPPKPKDTLMISRTPEVTCVVVDVSDEDPEVKFNWYVDGVEVHNAKTKPREEQYNSTYRVVSVLTVLHQDWLNGKEYKCKVSNKALPKPIEKTISKAKGQPREPQVYTLPPSREEMTKNQVSLTCLVKGFYPSDIAVEWESNGQPENNYKTTPPVLDSDGSFFLYSKLTVDKSRWQQGNVFSCSVMHEALHNHYTQKSLSLSP
light: QSALTQPPSASGSPGQTVTISCTGTRYDVGYYEYVSWYQQHPGKAPKLMIYETSKRLSGVPDRFSGSKSGNTASLTVSGLQAEDEADYYCSSYRYEHQVSFGGGTKLTVLGQPKAAPSVTLFPPSSEELQANKATLVCLISDFYPGAVTVAWKADSSPVKAGVETTTPSKQSNNKYAASSYLSLTPEQWKSHRSYSCQVTHEGSTVEKTVAPTECS
notes: copies: 2 + 2
B2: A375-MY518/B167-Lamlib (antibody, human IgG1, lambda)
heavy: B1 heavy with R219K, Q300L, K331T
light: B1 light
notes: copies: 2 + 2
B3: A375-MY518a/B167-Lamlib (antibody, human IgG1, lambda)
heavy: B1 heavy with Q300L, K331T
light: B1 light
notes: copies: 2 + 2
B4: A375-P253/B167-Lamlib (antibody, human IgG1, lambda)
heavy: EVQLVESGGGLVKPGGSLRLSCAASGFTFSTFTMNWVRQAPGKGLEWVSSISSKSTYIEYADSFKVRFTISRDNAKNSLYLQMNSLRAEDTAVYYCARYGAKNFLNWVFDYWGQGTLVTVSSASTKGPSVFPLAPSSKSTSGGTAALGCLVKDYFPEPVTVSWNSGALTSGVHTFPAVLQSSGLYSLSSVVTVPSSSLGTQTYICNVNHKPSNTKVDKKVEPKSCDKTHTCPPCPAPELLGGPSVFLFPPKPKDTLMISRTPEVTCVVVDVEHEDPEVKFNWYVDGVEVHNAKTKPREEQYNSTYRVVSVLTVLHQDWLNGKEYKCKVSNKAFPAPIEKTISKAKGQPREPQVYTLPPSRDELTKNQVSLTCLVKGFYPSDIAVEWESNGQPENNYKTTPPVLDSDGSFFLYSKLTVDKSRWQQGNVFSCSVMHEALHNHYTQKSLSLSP
light: B1 light
notes: copies: 2 + 2
B5: A375-P587/B167-Lamlib (antibody, human IgG1, lambda)
heavy: EVQLVESGGGLVKPGGSLRLSCAASGFTFSTFTMNWVRQAPGKGLEWVSSISSKSTYIEYADSFKVRFTISRDNAKNSLYLQMNSLRAEDTAVYYCARYGAKNFLNWVFDYWGQGTLVTVSSASTKGPSVFPLAPSSKSTSGGTAALGCLVKDYFPEPVTVSWNSGALTSGVHTFPAVLQSSGLYSLSSVVTVPSSSLGTQTYICNVNHKPSNTKVDKKVEPKSCDKTHTCPPCPAPDLLGGDSVFLFPPKPKDTLMISRTPEVTCVVIDVAEEDGEVKFNWYVDGVEVHNAKTKPREEQYNSTYRVVSVLTVLHQDWLNGKEYKCKVSNKALPAPIEKTISKAKGQPREPQVYTLPPSRDELTKNQVSLTCLVKGFYPSDIAVEWESNGQPENNYKTTPPVLDSDGSFFLYSKLTVDKSRWQQGNVFSCSVMHEALHNHYTQKSLSLSP
light: B1 light
notes: copies: 2 + 2
B6: A375-SCF025/B167-Lamlib (antibody, human IgG1, lambda)
heavy: B1 heavy with R219K, Q300L, K331T, P348R, D418K
light: B1 light
B7: A375-SCF025a/B167-Lamlib (antibody, human IgG1, lambda)
heavy: B1 heavy with Q300L, K331T, P348R, D418K
light: B1 light

What follows are binders tested against T4, human FcgRIIIa F158 extracellular domain (human, UniProt P08637 17-208) (assay: SPR 25C).
T4 construct: extracellular domain; also called hFcgRIIIaF
T4 sequence (P08637 17-208): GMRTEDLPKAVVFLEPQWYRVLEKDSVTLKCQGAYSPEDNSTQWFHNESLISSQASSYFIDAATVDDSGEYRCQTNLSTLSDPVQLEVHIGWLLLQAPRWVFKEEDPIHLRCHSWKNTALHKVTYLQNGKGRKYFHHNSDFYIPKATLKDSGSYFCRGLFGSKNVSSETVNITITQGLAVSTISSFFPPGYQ
Procedure: (§1) Biacore T200 (GE Healthcare) was used to evaluate the binding activity to the respective human Fcγ receptor (hereafter referred to as FcγR). Measurement was performed at 25° C. using 50 mM phosphate, 150 mM NaCl, 0.05 w/v %-P20, pH 7.4 as buffer. About 1000 RU of antibody was captured using a sensor chip immobilized with CaptureSelect™ Human Fab-lambda Kinetics Biotin Conjugate (Thermo Fisher Scientific) as a molecule for ligand capturing. Human FcγR was diluted to 8 nM for FcγRIa and 1000 nM for other FcγR in the measurement buffer, and it was interacted to the captured antibody. The binding activity of each antibody to FcγR was assessed by calculating the binding amount of FcγR (RU) per unit amount of antibody using Biacore T200 Evaluation Software 2.0.

| binding per 1RU antibody [RU] | relative binding (A375-G1T3/B167-Lamlib=1) | Binder |
| --- | --- | --- |
| 0.0007 | 0.03 | B1 |
| 0.0009 | 0.04 | B2 |
| 0.0006 | 0.03 | B3 |
| 0.0056 | 0.26 | B4 |
| 0.0001 | 0 | B5 |
| 0.0012 | 0.06 | B6 |
| 0.0009 | 0.04 | B7 |

The binders below were run against T5, human FcgRIa extracellular domain (human, UniProt P12314 16-292) (assay: SPR 25C).
T5 construct: extracellular domain; also called hFcgRIa
T5 sequence (P12314 16-292): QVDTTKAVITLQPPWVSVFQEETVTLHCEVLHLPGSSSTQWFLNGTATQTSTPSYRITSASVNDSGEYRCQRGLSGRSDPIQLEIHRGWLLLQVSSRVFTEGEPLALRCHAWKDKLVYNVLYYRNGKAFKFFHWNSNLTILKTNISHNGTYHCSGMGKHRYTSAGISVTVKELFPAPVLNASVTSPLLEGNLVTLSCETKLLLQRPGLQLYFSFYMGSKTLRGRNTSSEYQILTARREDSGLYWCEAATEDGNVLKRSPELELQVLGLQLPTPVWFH
Procedure: as §1

| binding per 1RU antibody [RU] | relative binding (A375-G1T3/B167-Lamlib=1) | Binder |
| --- | --- | --- |
| 0.004 | 0.05 | B1 |
| 0.002 | 0.02 | B2 |
| 0.0033 | 0.04 | B3 |
| 0.0937 | 1.15 | B4 |
| 0.0962 | 1.18 | B5 |
| 0.0022 | 0.03 | B6 |
| 0.0021 | 0.03 | B7 |

These binders were tested against T1, human FcgRIIa type R extracellular … (assay: SPR 25C).
Procedure: as §1

| binding per 1RU antibody [RU] | relative binding (A375-G1T3/B167-Lamlib=1) | Binder |
| --- | --- | --- |
| 0.0335 | 0.72 | B1 |
| 0.046 | 0.99 | B2 |
| 0.047 | 1.01 | B3 |
| 0.168 | 3.62 | B4 |
| 0.0371 | 0.8 | B5 |
| 0.0519 | 1.12 | B6 |
| 0.0518 | 1.12 | B7 |

These binders were tested against T2, human FcgRIIa type H extracellular … (assay: SPR 25C).
Procedure: as §1

| binding per 1RU antibody [RU] | relative binding (A375-G1T3/B167-Lamlib=1) | Binder |
| --- | --- | --- |
| 0.0328 | 0.58 | B1 |
| 0.0465 | 0.82 | B2 |
| 0.0479 | 0.84 | B3 |
| 0.0497 | 0.88 | B4 |
| 0.0029 | 0.05 | B5 |
| 0.0514 | 0.91 | B6 |
| 0.0514 | 0.91 | B7 |

What follows are binders tested against T3, human FcgRIIb extracellular domain (assay: SPR 25C).
Procedure: as §1

| binding per 1RU antibody [RU] | relative binding (A375-G1T3/B167-Lamlib=1) | Binder |
| --- | --- | --- |
| 0.0313 | 2.85 | B1 |
| 0.0482 | 4.4 | B2 |
| 0.0489 | 4.46 | B3 |
| 0.156 | 14.3 | B4 |
| 0.143 | 13 | B5 |
| 0.0512 | 4.67 | B6 |
| 0.0511 | 4.67 | B7 |

The binders below were run against T6, human FcgRIIIa V158 extracellular domain (human, UniProt P08637 17-208) (assay: SPR 25C).
T6 construct: extracellular domain; also called hFcgRIIIaV
T6 sequence (P08637 17-208 F176V): as the sequence (P08637 17-208) above, with F160V counted along it
Procedure: as §1

| binding per 1RU antibody [RU] | relative binding (A375-G1T3/B167-Lamlib=1) | Binder |
| --- | --- | --- |
| 0.0011 | 0.02 | B1 |
| 0.0015 | 0.02 | B2 |
| 0.0009 | 0.01 | B3 |
| 0.0019 | 0.03 | B4 |
| 0.0001 | 0 | B5 |
| 0.0014 | 0.02 | B6 |
| 0.0016 | 0.02 | B7 |

These binders were tested against human FcRn (human, UniProt P55899 24-290; P61769 21-119) (assay: SPR 25C pH 6.0, steady state).
Procedure: Biacore T200 (GE Healthcare) was used to assess the binding activity to human FcRn. Measurement was performed at 25° C. using 50 mM phosphate, 150 mM NaCl, 0.05 w/v %-P20, pH 6.0 as buffer. Human FcRn proteins used for this determination were prepared by the procedure described in WO2010107110. About 400 RU of antibody was captured using a sensor chip immobilized with CaptureSelect™ Human Fab-lambda Kinetics Biotin Conjugate (Thermo Fisher Scientific) as a molecule for ligand capturing, followed by the binding of human FcRn diluted in measuring buffer. The activity of the respective antibodies to bind FcRn was assessed by calculating KD(mol/L) by the steady-state model using Biacore T200 Evaluation Software 2.0.

| Kd [nM] | Binder |
| --- | --- |
| 1180 | B1 |
| 1270 | B2 |
| 1320 | B3 |
| 1420 | B4 |
| 1700 | B5 |
| 1100 | B6 |
| 1130 | B7 |
